From patent US20200308288A1 (OSE IMMUNOTHERAPEUTICS, published 2020) come the findings set out here.

Broadly, the EC50 is the concentration giving half of the maximal effect. The term EC50 (read off the curve) denotes the concentration giving half of the maximal effect.

Test [1] has as its target T1, recombinant hCD127 (Sino Biologicals, reference 10975-H08H) (human, UniProt P16871 21-239).
T1 construct: also called rCD127; CD127 protein
T1 chain: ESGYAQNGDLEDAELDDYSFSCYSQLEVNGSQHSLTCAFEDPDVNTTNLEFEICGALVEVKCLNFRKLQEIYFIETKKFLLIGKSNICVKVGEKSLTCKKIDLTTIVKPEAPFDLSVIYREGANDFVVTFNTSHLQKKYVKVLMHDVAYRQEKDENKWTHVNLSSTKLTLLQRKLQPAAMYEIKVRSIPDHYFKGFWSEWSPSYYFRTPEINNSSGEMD
The test is described as follows: ELISA, recombinant hCD127 immobilised at 1 µg/ml, purified antibody. Here is the method:
The binding activity of the anti hCD127 antibody was assessed by ELISA (Enzyme-linked immunosorbent assay). For the ELISA assay, recombinant hCD127 (Sino Biologicals, Beijing, China; reference 10975-H08H) was immobilized on plastic at 1μg/ml and purified antibody were added to measure binding.

For test [2], the target named is T1, recombinant hCD127 (Sino Biologicals, …). The test is described as follows: ELISA on immobilised recombinant hCD127 (1 µg/ml) after storage under different conditions. Here is the method: Humanized Effi3 antibody (clone VH3VL4) was incubated at 4° C., 37° C., at −80° C. or at room Temperature for 28 days. The binding activity was tested by ELISA assay, recombinant hCD127 (Sino Biologicals, Beijing, China; reference 10975-H08H) was immobilized on plastic at 1 μg/ml and dilutions of supernatant were added to measure binding. […] Increase doses of Mabs were added to measure binding.

B1: Effi3-VH3VL4 (antibody, human IgG1, kappa, V domains shown)
VH: AVQLVESGGGLVQPGGSLKITCAASGFTFTNAAMYWVRQAPGKGLEWVARIRTKANNYATYYADSVKGRFTISRDDSKSTVYLQMDSVKTEDTATYYCIVVVLTTTRDYFDYWGQGVLVTVSS
VL: DIVLTQSPSSLPVTPGEPASISCRSSQDLLTVKGITSLYWFLQKPGQSPKLLIYRMSNRDSGVPDRFSGSGSGTDFTLKISRVEAEDVGTYYCAQFLEYPHTFGAGTKLELKR
notes: Humanized from rat MD707-3; also called Effi3 H3L4; VHvar3+VLvar4
On to B1, for which the EC50 in test [1] is 4 ng/mL. In test [2], the concentration for a half-maximal effect (EC50 (read off the curve)) is approximately 6 ng/mL.

B2: Effi3-VH3VL3 (antibody, human IgG1, kappa, V domains shown)
VH: AVQLVESGGGLVQPGGSLKITCAASGFTFTNAAMYWVRQAPGKGLEWVARIRTKANNYATYYADSVKGRFTISRDDSKSTVYLQMDSVKTEDTATYYCIVVVLTTTRDYFDYWGQGVLVTVSS
VL: DIVLTQSPSSLPVTPGEPASISCRSSQSLLTVKGITSLYWFLQKPGQSPKLLIYRMSNRDSGVPDRFSGSGSETDFTLKISRVEAEDVGTYYCAQFLEYPHTFGAGTKLELKR
notes: Humanized from rat MD707-3; They are built here from the variable and constant entries so that the signal peptide is left out; also called Effi3 H3L3; VHvar3+VLvar3
As for B2, in test [1], the EC50 was determined as 4 ng/mL.

B3: MD707-3 (antibody, V domains shown)
VH: AVHLVESGGGLVQPKESLKISCAASGFTFSNAAMYWVRQAPGKGLEWVARIRTKANNYATYYAESVKGRFTISRDDSKSMVYLQMDNVKTDDTAMYYCIVVVLTTTRDYFDYWGQGVMVTVSS
VL: DIVLTQAPLSVSVTPGESASISCRSSQSLLTVKGITSLYWFLQKPGKSPQLLIYRMSNLASGVPDRFRGSGSETDFTLKISKVETEDVGVYYCAQFLEYPHTFGAGTKLELKR
notes: Rat anti-human CD127 antibody; also called MD707-3 chimeric antibody; MD707-3 mAb
Consider B3, for which the EC50 in test [1] worked out at 3.4 ng/mL.
